# Measured values taken from US20250339531A1, “DUX4 POLYPEPTIDES AND NUCLEIC ACIDS FOR TREATING INFLAMMATORY AND AUTOIMMUNE CONDITIONS” (Fred Hutchinson Cancer Center, priority 2021, published 2025).
# Tested on: proteins that co-immunoprecipitated with DUX4-CTD constructs expressed in MB135 myoblasts
# Assay: LC-MS of proteins co-immunoprecipitated with DUX4-CTD (Table 1) and western validation
# Format: binding, human
# Set-up: key to 4. mL1dL2 + Dox + IFNG / 4. + IFNG mix / 4. longCTD + Dox + IFNG / 3. + IFNg + Dox longCTD / 3. + Dox longCTD / 3. + IFNG longCTD: peptide-spectrum matches (PSMs) per protein
# Conditions: for 4. longCTD + Dox + IFNG: LC-MS counts of the listed protein co-immunoprecipitated with DUX4-CTD bait longCTD; for 3. + IFNg + Dox longCTD: experiment 3, IFNg + Dox; for SUM of PSMS: sum over all samples
# Method in brief: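 FLAG-tagged DUX4-CTD expressed in doxycycline-induced MB135 myoblasts, some also IFNG-treated; nuclear lysates in pH 7.4 NP-40 IP buffer were pre-cleared, then anti-FLAG immunoprecipitated 3 h at 4 °C. For LC-MS, FLAG-peptide elution, in-gel trypsin digest, Orbitrap analysis; proteins with ≥2 PSMs in both experiments categorised and ranked by total PSMs.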
# [1] = LC-MS counts of the listed protein co-immunoprecipitated with DUX4-CTD bait mL1dL2, experiment 4, Dox + IFNG
# [2] = LC-MS counts of the listed protein in anti-FLAG co-IP, experiment 4, IFNG, no doxycycline, mix, MB135 myoblasts
# [3] = LC-MS value per protein co-immunoprecipitated from MB135 myoblasts, + IFNG mix sample (no Dox), kind of count not given
# [4] = LC-MS value per protein co-immunoprecipitated with DUX4-CTD construct mL1dL2 in MB135 myoblasts, + Dox + IFNG, kind of count not given
Molecule,3. + IFNg + Dox longCTD (bait longCTD),SUM of PSMS,4. + IFNG mix [3],4. mL1dL2 + Dox + IFNG [4],further results
"P10809 (protein, UniProt P10809 1-573, looked up, full-length) MLRLPTVFRQMRPVSRVLAPHLTRAYAKDVKFGADARALMLQGVDLLADAVAVTMGPKGRTVIIEQSWGSPKVTKDGVTVAKSIDLKDKYKNIGAKLVQDVANNTNEEAGDGTTTATVLARSIAKEGFEKISKGANPVEIRRGVMLAVDAVIAELKKQSKPVTTPEEIAQVATISANGDKEIGNIISDAMKKVGRKGVITVKDGKTLNDELEIIEGMKFDRGYISPYFINTSKGQKCEFQDAYVLLSEKKISSIQSIVPALEIANAHRKPLVIIAEDVDGEALSTLVLNRLKVGLQVVAVKAPGFGDNRKNQLKDMAIATGGAVFGEEGLTLNLEDVQPHDLGKVGEVIVTKDDAMLLKGKGDKAQIEKRIQEIIEQLDVTTSEYEKEKLNERLAKLSDGVAVLKVGGTSDVEVNEKKDRVTDALNATRAAVEEGIVLGGGCALLRCIPALDSLTPANEDQKIGIEIIKRTLKIPAMTIAKNAGVEGSLIVEKIMQSSSEVGYDAMAGDFVNMVEKGIIDPTKVVRTALLDAAGVASLLTTAEVVVTEIPKEEKDPGMGAMGGMGGGMGGGMF",2,17,,,"4. longCTD + Dox + IFNG (experiment 4, Dox + IFNG): 5; 4. mL1dL2 + Dox + IFNG [1]: 4; 4. + IFNG mix [2]: 5; 3. + Dox longCTD (bait longCTD, experiment 3, Dox only): 1"
RPN1 (protein) ASSEAPPLINEDVKRTVDLSSHLAKVTAEVVLAHLGGGSTSRATSFLLALEPELEARLAHLGVQVKGEDEEENNLEVRETKIKGKSGRFFTVKLPVALDPGAKISVIVETVYTHVLHPYPTQITQSEKQFVVFEGNHYFYSPYPTKTQTMRVKLASRNVESYTKLGNPTRSEDLLDYGPFRDVPAYSQDTFKVHYENNSPFLTITSMTRVIEVSHWGNIAVEENVDLKHTGAVLKGPFSRYDYQRQPDSGISSIRSFKTILPAAAQDVYYRDEIGNVSTSHLLILDDSVEMEIRPRFPLFGGWKTHYIVGYNLPSYEYLYNLGDQYALKMRFVDHVFDEQVIDSLTVKIILPEGAKNIEIDSPYEISRAPDELHYTYLDTFGRPVIVAYKKNLVEQHIQDIVVHYTFNKVLMLQEPLLVVAAFYILFFTVIIYVRLDFSITKDPAAEARMKVACITEQVLTLVNKRIGLYRHFDETVNRYKQSRDISTLNSGKKSLETEHKALTSEIALLQSRLKTEGSDLCDRVSEMQKLDAQVKELVLKSAVEAERLVAGKLKKDTYIENEKLISGKRQELVTKIDHILDAL,,,2,7,
ASPH (protein) MAQRKNAKSSGNSSSSGSGSGSTSAGSSSPGARRETKHGGHKNGRKGGLSGTSFFTWFMVIALLGVWTSVAVVWFDLVDYEEVLGKLGIYDADGDGDFDVDDAKVLLGLKERSTSEPAVPPEEAEPHTEPEEQVPVEAEPQNIEDEAKEQIQSLLHEMVHAEHVEGEDLQQEDGPTGEPQQEDDEFLMATDVDDRFETLEPEVSHEETEHSYHVEETVSQDCNQDMEEMMSEQENPDSSEPVVEDERLHHDTDDVTYQVYEEQAVYEPLENEGIEITEVTAPPEDNPVEDSQVIVEEVSIFPVEEQQEVPPETNRKTDDPEQKAKVKKKKPKLLNKFDKTIKAELDAAEKLRKRGKIEEAVNAFKELVRKYPQSPRARYGKAQCEDDLAEKRRSNEVLRGAIETYQEVASLPDVPADLLKLSLKRRSDRQQFLGHMRGSLLTLQRLVQLFPNDTSLKNDLGVGYLLIGDNDNAKKVYEEVLSVTPNDGFAKVHYGFILKAQNKIAESIPYLKEGIESGDPGTDDGRFYFHLGDAMQRVGNKEAYKWYELGHKRGHFASVWQRSLYNVNGLKAQPWWTPKETGYTELVKSLERNWKLIRDEGLAVMDKAKGLFLPEDENLREKGDWSQFTLWQQGRRNENACKGAPKTCTLLEKFPETTGCRRGQIKYSIMHPGTHVWPHTGPTNCRLRMHLGLVIPKEGCKIRCANETKTWEEGKVLIFDDSFEHEVWQDASSFRLIFIVDVWHPELTPQQRRSLPAI,,,,1,
"P31947 (protein, UniProt P31947 1-248, looked up, full-length) MERASLIQKAKLAEQAERYEDMAAFMKGAVEKGEELSCEERNLLSVAYKNVVGGQRAAWRVLSSIEQKSNEEGSEEKGPEVREYREKVETELQGVCDTVLGLLDSHLIKEAGDAESRVFYLKMKGDYYRYLAEVATGDDKKRIIDSARSAYQEAMDISKKEMPPTNPIRLGLALNFSVFHYEIANSPEEAISLAKTTFDEAMADLHTLSEDSYKDSTLIMQLLRDNLTLWTADNAGEEGGEAPQEPQS",1,8,,,"4. longCTD + Dox + IFNG (experiment 4, Dox + IFNG): 6; 4. + IFNG mix [2]: 1"
SERPINH1 (protein) AEVKKPAAAAAPGTAEKLSPKAATLAERSAGLAFSLYQAMAKDQAVENILVSPVVVASSLGLVSLGGKATTASQAKAVLSAEQLRDEEVHAGLGELLRSLSNSTARNVTWKLGSRLYGPSSVSFADDFVRSSKQHYNCEHSKINFRDKRSALQSINEWAAQTTDGKLPEVTKDVERTDGALLVNAMFFKPHWDEKFHHKMVDNRGFMVTRSYTVGVMMMHRTGLYNYYDDEKEKLQIVEMPLAHKLSSLIILMPHHVEPLERLEKLLTKEQLKIWMGKMQKKAVAISLPKGVVEVTHDLQKHLAGLGLTEAIDKNKADLSRMSGKKDLYLASVFHATAFELDTDGNPFDQDIYGREELRSPKLFYADHPFIFLVRDTQSGSLLFIGRLVRPKGDKMRDEL,,,5,5,
PDIA3 (protein) SDVLELTDDNFESRISDTGSAGLMLVEFFAPWCGHCKRLAPEYEAAATRLKGIVPLAKVDCTANTNTCNKYGVSGYPTLKIFRDGEEAGAYDGPRTADGIVSHLKKQAGPASVPLRTEEEFKKFISDKDASIVGFFDDSFSEAHSEFLKAASNLRDNYRFAHTNVESLVNEYDDNGEGIILFRPSHLTNKFEDKTVAYTEQKMTSGKIKKFIQENIFGICPHMTEDNKDLIQGKDLLIAYYDVDYEKNAKGSNYWRNRVMMVAKKFLDAGHKLNFAVASRKTFSHELSDFGLESTAGEIPVVAIRTAKGEKFVMQEEFSRDGKALERFLQDYFDGNLKRYLKSEPIPESNDGPVKVVVAENFDEIVNNENKDVLIEFYAPWCGHCKNLEPKYKELGEKLSKDPNIVIAKMDATANDVPSPYEVRGFPTIYFSPANKKLNPKKYEGGRELSDFISYLQREATNPPVIQEEKPKKKKKAQEDL,,,9,3,
HNRNPH1 (protein) MMLGTEGGEGFVVKVRGLPWSCSADEVQRFFSDCKIQNGAQGIRFIYTREGRPSGEAFVELESEDEVKLALKKDRETMGHRYVEVFKSNNVEMDWVLKHTGPNSPDTANDGFVRLRGLPFGCSKEEIVQFFSGLEIVPNGITLPVDFQGRSTGEAFVQFASQEIAEKALKKHKERIGHRYIEIFKSSRAEVRTHYDPPRKLMAMQRPGPYDRPGAGRGYNSIGRGAGFERMRRGAYGGGYGGYDDYNGYNDGYGFGSDRFGRDLNYCFSGMSDHRYGDGGSTFQSTTGHCVHMRGLPYRATENDIYNFFSPLNPVRVHIEIGPDGRVTGEADVEFATHEDAVAAMSKDKANMQHRYVELFLNSTAGASGGAYEHRYVELFLNSTAGASGGAYGSQMMGGMGLSNQSSYGGPASQQLSGGYGGGYGGQSSMSGYGNQGAVNSSYYSSGSRASMGVNGMGGLSSMSSMSGGWGM,,,,7,
"P04844 (protein, UniProt P04844 1-631, looked up, full-length) MAPPGSSTVFLLALTIIASTWALTPTHYLTKHDVERLKASLDRPFTNLESAFYSIVGLSSLGAQVPDAKKACTYIRSNLDPSNVDSLFYAAQASQALSGCEISISNETKDLLLAAVSEDSSVTQIYHAVAALSGFGLPLASQEALSALTARLSKEETVLATVQALQTASHLSQQADLRSIVEEIEDLVARLDELGGVYLQFEEGLETTALFVAATYKLMDHVGTEPSIKEDQVIQLMNAIFSKKNFESLSEAFSVASAAAVLSHNRYHVPVVVVPEGSASDTHEQAILRLQVTNVLSQPLTQATVKLEHAKSVASRATVLQKTSFTPVGDVFELNFMNVKFSSGYYDFLVEVEGDNRYIANTVELRVKISTEVGITNVDLSTVDKDQSIAPKTTRVTYPAKAKGTFIADSHQNFALFFQLVDVNTGAELTPHQTFVRLHNQKTGQEVVFVAEPDNKNVYKFELDTSERKIEFDSASGTYTLYLIIGDATLKNPILWNVADVVIKFPEEEAPSTVLSQNLFTPKQEIQHLFREPEKRPPTVVSNTFTALILSPLLLLFALWIRIGANVSNFTFAPSTIIFHLGHAAMLGLMYVYWTQLNMFQTLKYLAILGSVTFLAGNRMLAQQAVKRTAH",4,7,,,4. mL1dL2 + Dox + IFNG [1]: 3
